Assay results taken from the array DNA melting data of Ke et al..

Assay: melting temperature; melt of duplexes
Settings: sodium 0.0675 M; strand 1 µM

Row | Substance | Tm
1 | CGACGTGCACAATGTGCTG+CAGCACATTAGGCACGTCG ((((((((..(((((((((+)))))))))..)))))))) | 50.6 °C
2 | CGACGTGCTAGATGTGCTG+CAGCACATTTCGCACGTCG ((((((((.(.((((((((+)))))))).).)))))))) | 50.1 °C
3 | CGACGTGCGGCATGTGCTG+CAGCACATCTGGCACGTCG ((((((((...((((((((+))))))))...)))))))) | 51.1 °C
4 | CGACGTGCGTAATGTGCTG+CAGCACATACCGCACGTCG (((((((((..((((((((+))))))))..))))))))) | 54.2 °C
5 | CGACGTGCTTCATGTGCTG+CAGCACATACCGCACGTCG ((((((((...((((((((+))))))))...)))))))) | 47.3 °C
6 | CGACGTGCTTGATGTGCTG+CAGCACATCATGCACGTCG ((((((((.((((((((((+)))))))))).)))))))) | 59.5 °C
7 | CGACGTGCATGATGTGCTG+CAGCACATCCGGCACGTCG ((((((((..(((((((((+)))))))))..)))))))) | 54.4 °C
8 | CGACGTGCCAGATGTGCTG+CAGCACATGAAGCACGTCG ((((((((...((((((((+))))))))...)))))))) | 50.5 °C
9 | CGACGTGCAGCATGTGCTG+CAGCACATCTGGCACGTCG ((((((((...((((((((+))))))))...)))))))) | 49.5 °C
10 | CGACGTGCACTATGTGCTG+CAGCACATTCGGCACGTCG ((((((((...((((((((+))))))))...)))))))) | 43.7 °C
11 | CGACGTGCTTAATGTGCTG+CAGCACATGCTGCACGTCG ((((((((...((((((((+))))))))...)))))))) | 49.1 °C
12 | CGACGTGCAATATGTGCTG+CAGCACATCCTGCACGTCG (((((((((..((((((((+))))))))..))))))))) | 49.6 °C
13 | CGACGTGCCAAATGTGCTG+CAGCACATATGGCACGTCG ((((((((((.((((((((+)))))))).)))))))))) | 56.9 °C
14 | CGACGTGCGCCATGTGCTG+CAGCACATAACGCACGTCG (((((((((..((((((((+))))))))..))))))))) | 52.4 °C
15 | CGACGTGCGTCATGTGCTG+CAGCACATCATGCACGTCG ((((((((.(.((((((((+)))))))).).)))))))) | 50.8 °C
16 | CGACGTGCCTCATGTGCTG+CAGCACATCGAGCACGTCG ((((((((...((((((((+))))))))...)))))))) | 50 °C
17 | CGACGTGCGTCATGTGCTG+CAGCACATTCCGCACGTCG (((((((((..((((((((+))))))))..))))))))) | 52.8 °C
18 | CGACGTGCGTAATGTGCTG+CAGCACATCGTGCACGTCG ((((((((...((((((((+))))))))...)))))))) | 44.3 °C
19 | CGACGTGCTCAATGTGCTG+CAGCACATATAGCACGTCG (((((((((..((((((((+))))))))..))))))))) | 51.5 °C
20 | CGACGTGCACCATGTGCTG+CAGCACATTTTGCACGTCG (((((((((..((((((((+))))))))..))))))))) | 46.7 °C
21 | CGACGTGCCCGATGTGCTG+CAGCACATCGTGCACGTCG ((((((((.((((((((((+)))))))))).)))))))) | 57.1 °C
22 | CGACGTGCAGAATGTGCTG+CAGCACATCGTGCACGTCG (((((((((..((((((((+))))))))..))))))))) | 49 °C
23 | CGACGTGCGTAATGTGCTG+CAGCACATAGGGCACGTCG ((((((((...((((((((+))))))))...)))))))) | 51.1 °C
24 | CGACGTGCTCTATGTGCTG+CAGCACATTCTGCACGTCG ((((((((...((((((((+))))))))...)))))))) | 47.8 °C

Row | Substance | Tm
25 | CGACGTGCAAGATGTGCTG+CAGCACATGCAGCACGTCG ((((((((...((((((((+))))))))...)))))))) | 52.3 °C
26 | CGACGTGCGTGATGTGCTG+CAGCACATACTGCACGTCG ((((((((...((((((((+))))))))...)))))))) | 51.1 °C
27 | CGACGTGCCGGATGTGCTG+CAGCACATAGGGCACGTCG (((((((((..((((((((+))))))))..))))))))) | 55.9 °C
28 | CGACGTGCAAGATGTGCTG+CAGCACATGCTGCACGTCG (((((((((..((((((((+))))))))..))))))))) | 51.1 °C
29 | CGACGTGCGTTATGTGCTG+CAGCACATCCCGCACGTCG (((((((((..((((((((+))))))))..))))))))) | 51.7 °C
30 | CGACGTGCGCAATGTGCTG+CAGCACATATGGCACGTCG ((((((((...((((((((+))))))))...)))))))) | 50.7 °C
31 | CGACGTGCCTCATGTGCTG+CAGCACATTGAGCACGTCG ((((((((...((((((((+))))))))...)))))))) | 51.4 °C
32 | CGACGTGCCACATGTGCTG+CAGCACATACAGCACGTCG ((((((((...((((((((+))))))))...)))))))) | 48.6 °C
33 | CGACGTGCAGCATGTGCTG+CAGCACATAGTGCACGTCG (((((((((..((((((((+))))))))..))))))))) | 44.4 °C
34 | CGACGTGCGGAATGTGCTG+CAGCACATCGAGCACGTCG ((((((((...((((((((+))))))))...)))))))) | 54.6 °C
35 | CGACGTGCCGTATGTGCTG+CAGCACATGCCGCACGTCG ((((((((.(.((((((((+)))))))).).)))))))) | 51.6 °C
36 | CGACGTGCCTTATGTGCTG+CAGCACATTGGGCACGTCG (((((((((..((((((((+))))))))..))))))))) | 55 °C
37 | CGACGTGCTTTATGTGCTG+CAGCACATCGTGCACGTCG ((((((((...((((((((+))))))))...)))))))) | 42.3 °C
38 | CGACGTGCCGTATGTGCTG+CAGCACATGATGCACGTCG ((((((((...((((((((+))))))))...)))))))) | 49.2 °C
39 | CGACGTGCAACATGTGCTG+CAGCACATCTAGCACGTCG ((((((((.(.((((((((+)))))))).).)))))))) | 48.2 °C
40 | CGACGTGCTGAATGTGCTG+CAGCACATACGGCACGTCG ((((((((.(.((((((((+)))))))).).)))))))) | 54.1 °C
41 | CGACGTGCAAAATGTGCTG+CAGCACATGTTGCACGTCG ((((((((((.((((((((+)))))))).)))))))))) | 56.4 °C
42 | CGACGTGCCGGATGTGCTG+CAGCACATCGCGCACGTCG ((((((((..(((((((((+)))))))))..)))))))) | 55.4 °C
43 | CGACGTGCTCCATGTGCTG+CAGCACATTTAGCACGTCG (((((((((..((((((((+))))))))..))))))))) | 49.4 °C
44 | CGACGTGCGAGATGTGCTG+CAGCACATCGAGCACGTCG ((((((((..(((((((((+)))))))))..)))))))) | 64.5 °C
45 | CGACGTGCCTTATGTGCTG+CAGCACATGTAGCACGTCG ((((((((...((((((((+))))))))...)))))))) | 49.1 °C
46 | CGACGTGCCTTATGTGCTG+CAGCACATAAAGCACGTCG ((((((((.((((((((((+)))))))))).)))))))) | 53.4 °C
47 | CGACGTGCTGCATGTGCTG+CAGCACATTACGCACGTCG ((((((((...((((((((+))))))))...)))))))) | 48.2 °C
48 | CGACGTGCGCCATGTGCTG+CAGCACATAATGCACGTCG ((((((((...((((((((+))))))))...)))))))) | 48.6 °C

Row | Substance | Tm
49 | CGACGTGCTTTATGTGCTG+CAGCACATAGGGCACGTCG ((((((((..(((((((((+)))))))))..)))))))) | 51.1 °C
50 | CGACGTGCTTAATGTGCTG+CAGCACATAGCGCACGTCG ((((((((...((((((((+))))))))...)))))))) | 47.3 °C
51 | CGACGTGCGCGATGTGCTG+CAGCACATAATGCACGTCG ((((((((...((((((((+))))))))...)))))))) | 50 °C
52 | CGACGTGCCGTATGTGCTG+CAGCACATACGGCACGTCG (((((((((((((((((((+))))))))))))))))))) | 66.2 °C
53 | CGACGTGCCTTATGTGCTG+CAGCACATACGGCACGTCG (((((((((.(((((((((+))))))))).))))))))) | 56.1 °C
54 | CGACGTGCTCCATGTGCTG+CAGCACATACGGCACGTCG ((((((((...((((((((+))))))))...)))))))) | 47 °C
55 | CGACGTGCAGTATGTGCTG+CAGCACATGGCGCACGTCG ((((((((...((((((((+))))))))...)))))))) | 50.2 °C
56 | CGACGTGCCTGATGTGCTG+CAGCACATGTAGCACGTCG ((((((((...((((((((+))))))))...)))))))) | 49.3 °C
57 | CGACGTGCACCATGTGCTG+CAGCACATACGGCACGTCG ((((((((...((((((((+))))))))...)))))))) | 42.9 °C
58 | CGACGTGCTGCATGTGCTG+CAGCACATAATGCACGTCG ((((((((...((((((((+))))))))...)))))))) | 50.7 °C
59 | CGACGTGCAGCATGTGCTG+CAGCACATTGTGCACGTCG (((((((((..((((((((+))))))))..))))))))) | 44.8 °C
60 | CGACGTGCGTAATGTGCTG+CAGCACATATTGCACGTCG ((((((((...((((((((+))))))))...)))))))) | 50.5 °C
61 | CGACGTGCTAGATGTGCTG+CAGCACATCAAGCACGTCG (((((((((.(((((((((+))))))))).))))))))) | 57.5 °C
62 | CGACGTGCACCATGTGCTG+CAGCACATAAGGCACGTCG ((((((((...((((((((+))))))))...)))))))) | 44.1 °C
63 | CGACGTGCCTTATGTGCTG+CAGCACATAAGGCACGTCG (((((((((((((((((((+))))))))))))))))))) | 62.9 °C
64 | CGACGTGCTCCATGTGCTG+CAGCACATTCAGCACGTCG (((((((((..((((((((+))))))))..))))))))) | 48.7 °C
65 | CGACGTGCCGGATGTGCTG+CAGCACATACGGCACGTCG ((((((((((.((((((((+)))))))).)))))))))) | 63.8 °C
66 | CGACGTGCAACATGTGCTG+CAGCACATTGGGCACGTCG ((((((((...((((((((+))))))))...)))))))) | 50.1 °C
67 | CGACGTGCACCATGTGCTG+CAGCACATTTAGCACGTCG ((((((((...((((((((+))))))))...)))))))) | 42.2 °C
68 | CGACGTGCGCAATGTGCTG+CAGCACATAGAGCACGTCG ((((((((.(.((((((((+)))))))).).)))))))) | 54.7 °C
69 | CGACGTGCCTGATGTGCTG+CAGCACATGGGGCACGTCG (((((((((..((((((((+))))))))..))))))))) | 56.4 °C
70 | CGACGTGCAATATGTGCTG+CAGCACATTGCGCACGTCG ((((((((...((((((((+))))))))...)))))))) | 50 °C
71 | CGACGTGCACCATGTGCTG+CAGCACATTGAGCACGTCG ((((((((.(.((((((((+)))))))).).)))))))) | 47.2 °C
72 | CGACGTGCCAAATGTGCTG+CAGCACATCGGGCACGTCG (((((((((..((((((((+))))))))..))))))))) | 54.3 °C
